According to the supplement of paper PMC9170038:

Experiments:
MS2 coat protein [1] = assay: apparent KD of MS2 coat protein, switch OFF state (with FMN for OFF switches, without FMN for ON switches); designed switch direction (-1 OFF switch, 1 ON switch): -1; higher = weaker reporter binding; conditions: FMN input: 0 or 200 uM; Eterna round: R93 (includes R88 designs)
Procedure, shortened: (§1)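 Apparent KD is reported per design as the median of normalised binding-curve fits across its clusters. The RNA switches were made by on-chip transcription from Illumina sequencing clusters. SNAP-549-labelled MS2 coat protein was then added in twofold steps (0.7 or 1.5 nM to 3 µM; 0.8–1.5 h to 10–20 min per step) in 100 mM Tris-HCl pH 7.5, 80 mM KCl, 4 mM MgCl2, without or with constant ligand.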

MS2 coat protein [2] = assay: apparent KD of MS2 coat protein, switch ON state; designed switch direction (-1 OFF switch, 1 ON switch): -1; higher = weaker reporter binding; conditions: FMN input: 0 or 200 uM; Eterna round: R93 (includes R88 designs)
Procedure, shortened: as §1

| Sequence | apparent KD of MS2 coat protein (MS2 coat protein [1]) | apparent KD of MS2 coat protein (MS2 coat protein [2]) |
| --- | --- | --- |
| AACAAACAUGAGGAUCACCCAUGUCAGGAUAUCGAAACAACAAACAACAAACAACAAACGAGAAGGGACAACAA [e1] | 23.8 nM | 19.2 nM |
| AACAAACAUGAGGAUCACCCAUGUCAGGAUAUGCACAAACAAACAAACAAACAAGCAAGCAGAAGGGACACAAC [Amethyst 89] | 27.6 nM | 13.7 nM |
| AACAAGACAGGAUAUACAUGAGGAUCACCCAUGUGAGAAUUAAGUGGCGUAACACAAAGUAGAAGGGUCAUGGA [Ruby 4] | 56.2 nM | 38 nM |
| AACAAGUGAGGAUAUGAAAAUACAACAAACAAACAACUACAUCAGAAGGCACAUGAGGAUCACCCAUGUAAAAC [JR_Exc004_Sub1204] | 20.7 nM | 19 nM |
| AACACACAUGAGGAUCACCCAUGUAAGGAUAUGCGAGCAAGAAGAAAGAACAGAAAAAGCAGAAGGUACACACA [Amethyst 75] | 29.5 nM | 29.6 nM |
| AACAGGUCAGGAUAUGUGGAAAAAAUAAAAAAAAUAAAAACACAGAAGGGACAUGAGGAUCACCCAUGUAAAUA [May 22] | 114 nM | 58 nM |
| AACAGUACAGGAUAUACAUGAGGAUCACCCAUGUAAAAAAAGGGUGGCGUACCACAAAGUAGAAGGGUACUGGA [Moding Maslow revisited (73) 10] | 44.1 nM | 109 nM |
| AACAGUACAGGAUAUACAUGAGGAUCACCCAUGUAAAAAAGGGCUGGCGUACCAGAAAGUAGAAGGGUACUGGA [Moding Maslow revisited (73) 9] | 88.1 nM | 30.6 nM |
| AACAGUACAGGAUAUACAUGAGGAUCACCCAUGUAAAGGGAAUAAAACAAAAAAAAAUGUAGAAGGGUACUGGA [Mat - Exclusion 3 - Eli mod - D66] | 110 nM | 75.1 nM |
| AACAGUACAGGAUAUACAUGAGGAUCACCCAUGUCACAACAAAGCAGCGUAACACAAAGUAGAAGGGUAAUGGA [Ruby 16] | 39.5 nM | 48.6 nM |
| AACAGUACAGGAUAUACAUGAGGAUCACCCAUGUGAAAAUAAAGUGGCGUACCACAAAGUAGAAGGGUACUGGA [Moding Maslow revisited (73) 4] | 101 nM | 28.8 nM |
| AACAGUACAGGAUAUACAUGAGGAUCACCCAUGUGAAAGAAAAGUGGCGUACCACAAAGUAGAAGGGUACUGAA [Mat - Exclusion 3 - JL mod - D28] | 134 nM | 30.2 nM |
| AACAGUACAGGAUAUACAUGAGGAUCACCCAUGUGAAGAUUAAGAAGAAACCCACAAAGUAGAAGGGUACUGGA [Ruby 92] | 47.4 nM | 29 nM |
| AACAGUACAGGAUAUACAUGAGGAUCACCCAUGUGAGAAUUAAGUGGAAGACCACAAAGUAGAAGGGUACUGAA [Mat - Exclusion 3 - JL mod - D10] | 189 nM | 28.4 nM |
| AACAGUACAGGAUAUACAUGAGGAUCACCCAUGUGAUAUAAAUAAAACAAAAAUAAAAGUAGAAGGGUACUGGA [Ruby 44] | 70.8 nM | 25.7 nM |
| AACAGUACAGGAUAUACAUGAGGAUCACCCAUGUGAUUAUCAAGUGCCGUAGCACGAAGUAGAAGGGUACUGGA | 243 nM | 60.3 nM |
| AACAGUAGAGGAUAUACAUGAGGAUCACCCAUGUGAGAAACCACUGGCGUACCAGAAAGUAGAAGGCUACUGGA [Moding Maslow Revisited (73) 30] | 34.6 nM | 103 nM |
| AACAUACAUGAGGAUCACCCAUGUCAGGAUAUGCCGGGUUAGAACCAAAAAAAAAAACGUAGAAGGGACAAAAA [Bilbo Confounded 4 - Jieux - Exclusion 1] | 140 nM | 234 nM |
| AACAUACAUGAGGAUCACCCAUGUCAGGAUAUGCCGGGUUAGAGCCAACUAAAAAAACGUAGAAGGGACAAAAA [Bilbo Confounded 6 - Jieux - Exclusion 1] | 55.7 nM | 62.7 nM |
| AACAUGUCAGGAUAUAUAAGAAAAGAAAAGAAAGAAAAGAAAUAGAAGGGACAUGAGGAUCACCCAUGUAAGAA [EteRNA is fun!] | 29 nM | 45.2 nM |
| AACAUGUCAGGAUAUGUAAAAAAAAAAAAAAAAAAAAAAAUACAGAAGGGACAUGAGGAUCACCCAUGUCAGGG [EX4 391: Minimal 3] | 55.3 nM | 69.8 nM |
| AACAUGUUAGGAUAUGAAAGAAAAGAAAAGAAAGAAAAGAAUCAGAAGGAACAUGAGGAUCACCCAUGUAAGAA [EteRNA is fun!] | 19.8 nM | 25.6 nM |
